The values that follow come from paper PMC6555848, “Structural and functional consequences of the STAT5B^N642H driver mutation” (Nature Communications, 2019).

By stoichiometry N is commonly meant a count of units in the complex or per binding partner.

Data set [1] deals with the molecule itself. In words: dynamic light scattering; 50 µM protein in 20 mM HEPES pH 7.4, 150 mM NaCl, 2% glycerol; unphosphorylated protein, self-association.
Data set [2] deals with the molecule itself. The experiment in a line: crystal structure; unphosphorylated core fragment A136-Q703; two molecules per asymmetric unit; STAT5B 3.29 Å, STAT5B^N642H 3.21 Å.

Positions count from the first letter of the chain named. In names and notes the source's numbering stands.

B1: full-length human STAT5B (M1-S787) (natural protein, UniProt P51692 1-787, looked up)
chain: MAVWIQAQQLQGEALHQMQALYGQHFPIEVRHYLSQWIESQAWDSVDLDNPQENIKATQLLEGLVQELQKKAEHQVGEDGFLLKIKLGHYATQLQNTYDRCPMELVRCIRHILYNEQRLVREANNGSSPAGSLADAMSQKHLQINQTFEELRLVTQDTENELKKLQQTQEYFIIQYQESLRIQAQFGPLAQLSPQERLSRETALQQKQVSLEAWLQREAQTLQQYRVELAEKHQKTLQLLRKQQTIILDDELIQWKRRQQLAGNGGPPEGSLDVLQSWCEKLAEIIWQNRQQIRRAEHLCQQLPIPGPVEEMLAEVNATITDIISALVTSTFIIEKQPPQVLKTQTKFAATVRLLVGGKLNVHMNPPQVKATIISEQQAKSLLKNENTRNDYSGEILNNCCVMEYHQATGTLSAHFRNMSLKRIKRSDRRGAESVTEEKFTILFESQFSVGGNELVFQVKTLSLPVVVIVHGSQDNNATATVLWDNAFAEPGRVPFAVPDKVLWPQLCEALNMKFKAEVQSNRGLTKENLVFLAQKLFNNSSSHLEDYSGLSVSWSQFNRENLPGRNYTFWQWFDGVMEVLKKHLKPHWNDGAILGFVNKQQAHDLLINKPDGTFLLRFSDSEIGGITIAWKFDSQERMFWNLMPFTTRDFSIRSLADRLGDLNYLIYVFPDRPKDEVYSKYYTPVPCESATAKAVDGYVKPQIKQVVPEFVNASADAGGGSATYMDQAPSPAVCPQAHYNMYPQNPDSVLDTDGDFDLEDTMDVARRVEELLGRPMDSQWIPHAQS
notes: human STAT5B, full length M1-S787, gene NCBI NM_012448.3, unphosphorylated; also called wild-type STAT5B; wild-type; source: E. coli BL21 (DE3) RILP, purified (Ni-NTA, Ulp1 cleavage, SEC); not shown: His, N-terminal, cleaved; SUMO, N-terminal, cleaved
B1: the “stoichiometry N” value in data set [1] worked out at 2.

B2: human STAT5B core fragment (A136-Q703) (domain or fragment, UniProt P51692 136-703, looked up)
chain: AMSQKHLQINQTFEELRLVTQDTENELKKLQQTQEYFIIQYQESLRIQAQFGPLAQLSPQERLSRETALQQKQVSLEAWLQREAQTLQQYRVELAEKHQKTLQLLRKQQTIILDDELIQWKRRQQLAGNGGPPEGSLDVLQSWCEKLAEIIWQNRQQIRRAEHLCQQLPIPGPVEEMLAEVNATITDIISALVTSTFIIEKQPPQVLKTQTKFAATVRLLVGGKLNVHMNPPQVKATIISEQQAKSLLKNENTRNDYSGEILNNCCVMEYHQATGTLSAHFRNMSLKRIKRSDRRGAESVTEEKFTILFESQFSVGGNELVFQVKTLSLPVVVIVHGSQDNNATATVLWDNAFAEPGRVPFAVPDKVLWPQLCEALNMKFKAEVQSNRGLTKENLVFLAQKLFNNSSSHLEDYSGLSVSWSQFNRENLPGRNYTFWQWFDGVMEVLKKHLKPHWNDGAILGFVNKQQAHDLLINKPDGTFLLRFSDSEIGGITIAWKFDSQERMFWNLMPFTTRDFSIRSLADRLGDLNYLIYVFPDRPKDEVYSKYYTPVPCESATAKAVDGYVKPQ
notes: human STAT5B core fragment A136-Q703 (printed once as S136-Q703), unphosphorylated; Two molecules per asymmetric unit; described as the unphosphorylated dimer; also called unphosphorylated STAT core fragment; source: E. coli BL21 (DE3) RILP, purified (Ni-NTA, Ulp1 cleavage, SEC); not shown: His, N-terminal, cleaved; SUMO, N-terminal, cleaved
B2: the binding result in data set [2] was “binds”.

B3: STAT5B^N642H core fragment (A136-Q703) (domain or fragment, human, UniProt P51692 136-703, looked up)
chain: B2 chain with N507H
notes: human STAT5B core fragment A136-Q703 with the patient-derived mutation N642H; Two molecules per asymmetric unit; described as the unphosphorylated dimer; source: E. coli BL21 (DE3) RILP, purified (Ni-NTA, Ulp1 cleavage, SEC); not shown: His, N-terminal, cleaved; SUMO, N-terminal, cleaved
As to B3, the binding result in data set [2] is “binds”.
